The target in this test is Human IgM heavy (μ) chain of the full-length IgM pentamer from myeloma (human) (UniProt P01871). Briefly: cryo-EM structure; full-length human IgM pentamer without secretory component, 0.25 mg/ml, in PBS; single-particle cryo-EM, 3D variability analysis and focused refinement on subunit 1; models PDB 6KXS, 4JVU and 2AGJ rigidly docked.

Broadly, the stoichiometry N is the number of molecules, sites or subunits per partner or assembly.

“Human IgM heavy (μ) chain of the full-length IgM pentamer from myeloma (from UniProt P01871 106-433) (natural protein)” came in with a stoichiometry N of 10.

The values are drawn from article PMC9588798.
